In patent publication US20160324962A1, “COMPOSITIONS AND METHODS FOR TREATING SARCOMA” (MEDIMMUNE, LLC, priority 2013, published 2016):

How the values were obtained:
human IGF-1 = biological target: T1, human IGF-1 (Homo sapiens, UniProt P05019); test: IGF levels in tumor and plasma after injection of human IGF; assay type: in vivo, mice; conditions: RD-ES tumor lysates and plasma, intraperitoneal pretreatment for 6 hours, 15 min after IGF-1 injection
T1 construct: purchased R&D Systems (Minneapolis, Minn.)
Experimental: (§1) Thus, human IGF-1 and IGF-2 (IGF-1/-2) were injected into mice in an attempt to understand the role of IGF ligands in driving tumor growth when delivered by endocrine or paracrine secretion, and the effect of MEDI-573 in inhibiting this function. Fifteen minutes after IGF-1 or IGF-2 injection, high levels of IGF-1 or IGF-2 were detected both in RD-ES tumor and plasma.
(§2) For in vivo mechanism of action (MOA) studies, when tumors reached approximately 400 mm^3, a single dose of MEDI-573 was given. Tumor and plasma samples were collected 4 hr after dosing to assess the effect of MEDI-573 on autocrine IGF signaling. In another set of mice, 6 hr after MEDI-573 dosing, human IGF-1 or IGF-2 was injected by tail-vein. Tumor and plasma samples were collected 15 min after IGFs injection to assess the effect of MEDI-573 on IGF-1/-2 induced signaling.

human IGF-2 = biological target: T2, human IGF-2 (Homo sapiens, UniProt P01344); test: as above; assay type: in vivo, mice; conditions: RD-ES tumor lysates and plasma, intraperitoneal pretreatment for 6 hours, 15 min after IGF-2 injection
T2 construct: purchased R&D Systems (Minneapolis, Minn.)
Experimental: as §1, §2

KHOS cells = test: IGF-induced proliferation (CTG); assay type: cell-based
Experimental: (§3) To access the effect of MEDI-573 on IGF-Induced proliferation, MEDI-573 or isotype control, was added to the cells for 30 minutes at 37° C. IGF-1 or IGF-2 was then added to the appropriate wells and incubated for 3 days. Proliferation was quantified using the CTG reagent.

RD cells = test: IGF-induced proliferation (CTG); assay type: cell-based
Experimental: as §3

SJSA-1 cells = test: IGF-induced proliferation (CTG); assay type: cell-based
Experimental: as §3

KHOS xenograft model = test: Xenograft efficacy study in mice; assay type: in vivo; conditions: KHOS xenografts, MEDI-573 alone
Excerpt: (§4) Although proliferation of SK-ES-1 and SJCRH30 cells was inhibited by MEDI-573 in vitro in the absence of exogenous IGFs, the in vivo growth of these two models was not effected by MEDI-573 treatment.
(§5) For in vivo efficacy studies, five million sarcoma cells in 50% matrigel were inoculated subcutaneously into each female athymic nude mice. When tumors reach approximately 150-200 mm^3, mice were randomly assigned into groups (10 mice per group). MEDI-573 was administrated intraperitoneally twice per week at indicated doses. The dose regimen for AZD2014 was oral once every day, for rapamycin was intraperitoneal injection every 3 days. Tumor volumes were measured twice weekly with calipers. Tumor growth inhibition was calculated on the last day of study relative to the initial and final mean tumor volume of the control group.

SJCRH30 = test: Xenograft efficacy study in mice; assay type: in vivo; conditions: SJCRH30 model
Excerpt: as §4, §5

[1] = test system: SJSA-1 (an osteosarcoma model) xenografts; test: Xenograft efficacy study in mice; assay type: in vivo; conditions: SJSA-1 xenografts, MEDI-573 alone
Excerpt: as §4, §5

SK-ES-1 = test: Xenograft efficacy study in mice; assay type: in vivo; conditions: SK-ES-1 model
Excerpt: as §4, §5

pS6K = test: In vivo mechanism of action study, immunoblot of tumors; conditions: RD-ES-bearing mice injected with human IGF-1/-2, MEDI-573 pretreatment
Experimental: IGF-1/-2 injection did change the baseline level of p4EBP-1.
as §2

IGF-1R phosphorylation = test: pIGF-1R assay in sarcoma cells (MSD); assay type: cell-based
Experimental: When exogenous IGF-1 or IGF-2 was added to cells, there was an induction of phosphorylation of IGF-1R and IR-A in all cells examined.
The sarcoma lines were cultured overnight in complete medium. The following day, medium containing 0.1% charcoal stripped fetal bovine serum (FBS) was added to the cultures and the cultures incubated overnight. The next day, cells were treated with various treatments for 5 minutes. Media was removed; cells were washed and lysed with 1.0% Triton X lysis buffer with protease and phosphatase inhibitors. Approximately 8-20 μg of total protein was loaded on MSD 96-Well MULTI-SPOT plates and the level of total and phosphorylated IGF-1R, IR-A and IRS-1 protein was determined using the Insulin Signaling Panel (total protein) and Insulin Signaling Panel (phosphoprotein) Whole Cell Lysate kits according to the manufacturers protocol. The level of total and phosphorylated AKT was determined using the Phospho (Ser473)/Total AKT Assay Whole Cell Lysate kit according to manufacturer's standard protocol.

T1 sequence (P05019 49-118 limits assumed): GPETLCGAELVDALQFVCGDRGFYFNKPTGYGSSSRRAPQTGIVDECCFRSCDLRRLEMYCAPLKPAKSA
T2 sequence (P01344 25-91 limits assumed): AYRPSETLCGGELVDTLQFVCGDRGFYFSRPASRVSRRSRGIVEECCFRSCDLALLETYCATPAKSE

B1: MEDI-573: fully human monoclonal IgG2 lambda antibody that binds IGF-2 with cross reactivity to IGF-1; hybridoma 7.159.2, ATCC PTA-7424 (antibody)
heavy: QVQLVQSGAEVKKPGASVKVSCKASGYTFTSYDINWVRQATGQGLEWMGWMNPNSGNTGYAQKFQGRVTMTRNTSISTAYMELSSLRSEDTAVYYCARDPYYYYYGMDVWGQGTTVTVSSASTKGPSVFPLAPCSRSTSESTAALGCLVKDYFPEPVTVSWNSGALTSGVHTFPAVLQSSGLYSLSSVVTVPSSNFGTQTYTCNVDHKPSNTKVDKTVERKCCVECPPCPAPPVAGPSVFLFPPKPKDTLMISRTPEVTCVVVDVSHEDPEVQFNWYVDGVEVHNAKTKPREEQFNSTFRVVSVLTVVHQDWLNGKEYKCKVSNKGLPAPIEKTISKTKGQPREPQVYTLPPSREEMTKNQVSLTCLVKGFYPSDIAVEWESNGQPENNYKTTPPMLDSDGSFFLYSKLTVDKSRWQQGNVFSCSVMHEALHNHYTQKSLSLSPGK
light: QSVLTQPPSVSAAPGQKVTISCSGSSSNIENNHVSWYQQLPGTAPKLLIYDNNKRPSGIPDRFSGSKSGTSATLGITGLQTGDEADYYCETWDTSLSAGRVFGGGTKLTVLGQPKAAPSVTLFPPSSEELQANKATLVCLISDFYPGAVTVAWKADSSPVKAGVETTTPSKQSNNKYAASSYLSLTPEQWKSHRSYSCQVTHEGSTVEKTVAPTECS
reduction of IGF-1 levels (human IGF-1): approximately 50% | reduction of IGF-2 levels (human IGF-2): almost completely | IGF-1 IC50 (μM) (KHOS cells; KHOS cells stimulated with IGF-1): No Induction | IGF-2 IC50 (μM) (KHOS cells; KHOS cells stimulated with IGF-2): No Induction | effect on growth (KHOS cells; KHOS cells, with or without IGF stimulation): failed to have any significant effect | IGF-1 IC50 (μM) (RD cells; RD cells stimulated with IGF-1): No Induction | IGF-2 IC50 (μM) (RD cells; RD cells stimulated with IGF-2): No Induction | effect on growth (RD cells; RD cells, with or without IGF stimulation): failed to have any significant effect | IGF-1 IC50 (μM) (SJSA-1 cells; SJSA-1 cells stimulated with IGF-1): No Induction | IGF-2 IC50 (μM) (SJSA-1 cells; SJSA-1 cells stimulated with IGF-2): No Induction | response in vivo (KHOS xenograft model): did not respond | in vivo growth (SJCRH30): not effected | tumor growth inhibition [1]: Comparable results | in vivo growth (SK-ES-1): not effected | IGF-induced pS6K in tumors (pS6K): dramatic reduction | autophosphorylation of IGF-1R (IGF-1R phosphorylation; RD-ES, TC-71, SK-ES-1, and SJSA-1 cells): inhibited autophosphorylation | IGF-1/-2-induced activation of IGF-1R (IGF-1R phosphorylation; pretreatment with MEDI-573, exogenous IGF-1 or IGF-2): inhibited
